# Data published in a protein production outcome set (Wang et al. 2014).
# Test: label from the status in PepcDB records
# 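Note: failed if final PepcDB status was selected cloned or expressed and not failed if soluble or beyond.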
row,Sequence,protein production
1,MRKKKRLISLLLAVFIAVACLPAGIARADKASSIELKFDRNKGEVGDILIGTVRINNIKNFAGFQVNIVYDPKVLMAVDPETGKEFTSSTFPPGRTVLKNNAYGPIQIADNDPEKGILNFALAYSYIAGYKETGVAEESGIIAKIGFKILQKKSTAVKFQDTLSMPGAISGTQLFDWDGEVITGYEVIQPDVLSLGDEPYETPGTDIPISDNPAATPSSTPSVTPSPEVKPTQTPSPAENSAKVELEPVLDNATGEAKAAIDEEKLNKALDEAKKSEDDKLVELNIKKVENADAYIQQLPAKFLIKSDAEYKLRIATEQGIIEVPANMLNTADISKLVKNDSVVEFVIRKVKVDELGAELKEKIGNRPVIDISVVVDGKKVEWSNYKAKVKISIPYKPDAKELENHEHIVVLHIDDAGKAVSVPSGKYEPSLGVVTFETNHLSKYAVSYVYKTFADIGSYAWAKKQIEVLASKGVINGTSDTTFTPQADITRADFMILLVKALGLTAEVTSNFDDVSEKDYYYEYVGIAKELGITTGVGNNKFNPKAKITRQDMMVLTTNALRIAGKISSTGTRADVERFSDKDQIASYAVEGVATLVKEGIVVGSGDIINPRGNASRAELAAIIYKIYYK,not failed
2,MTTDAPALLPALQARVRETAHARTPAGCPCGAATLADRPDATVVRHAGTVAKAHAADADPAELSLRVTAAARLPGVLLPPLAPAPVDLHGRLVTYWPYGTPVDPEDPDAAPWEAAATLLARLHRTPVPAALPPMRGPAKAARAAARLSDTARDHPATAPVLAAWAALPAWARGEAAMPGPAALCHGDLHLGQLIRHPAPDGPWLLIDVDDLGTGVPAWDLARPAAWYACGLLPPEEWHRFLTAYRAAGGPAVPAEGDPWPALDVPARALTAQTAARAVAKAVLAGRALDEVERSLVDACARMASVRPADPRG,failed
3,MTEVDPRFEAWLSLETGIDAPSLGANALERAVLERARAMLAESSPRRPAVADAAALDAYWLRLNTWPEERQALIEALVVPETWFFRDREAFAELARLAGERLVREPARVLRILSVACSTGEEPYSAAMALLDAGIGPARFAIDAIDISGRAIDQAEHALYGRNAFRGYPLTFRDRYFSEVADGWQLNERVRRRVRFTQGNLFDETMDGEARYDFIFCRNALTYFHRDAQDHAIRRLDAQLADGGVIFVGPAETGPMMRHAMTPARSPLAFAFVRTPPAAKVPARAAPSQQQAPRPAVTGSPTVKPAAPEAASLAVRGGGAALPEHSAAVPVSLSTPLSVPPLRKVLPDLDDARQLTDAGRFDEAEYIIQDIVSLSAPEADTFYLLGVIAHARGRYADAGDFYRKTLYLDPEHYEALTHLAAVLDASGDAVGARQLMLRAQRAMARRDPAHPDAPNRPRGAPGLRRS,failed
4,MTKQQKGFVTGQPTGALNLSDILDSEELGEYHLMSAAIITGNTVDFSGLGAGPDDPFEIASITKIFTGELLRLQIERGEITESTAVGDVLGERVADSLIRDITVEELANHTSGLPRLGNVGLRPFMATFFDKNPYKDLSADRVISISTTSKLNSRGEFHYSNLGFALLGQVLARNAGLTFDQLLDRDLLAPLNLNNTKLMTPESLAQDAPQGFSTPGKQVEAWEMDGFLPAAGLRSTARDMAVFCQYLFTKGPAPFTWQSLESAPEIVWHNGESFGYSSVLFFNTATTTAIFVAADVATSVFPIGHELLMANSTRQESKLEHHHHHH,failed
5,MIMASSAAASISMITLRNLSRNHQSHQSTFLGFSRSFHNQRISSNSPGLSTRARSTTSSTGGFFRTICSSSSNDYSRPTKIQELNVYEFNEGDRNSPAVLKLGKKPDQLCLGDLVPFTNKLYTGDLTKRIGITAGLCVLIQHVPEKKGDRFEASYSFYFGDYGHISVQGPYLTYEDTFLAITGGSGVFEGAYGQVKLRQLVYPTKLFYTFYLKGVAADLPVELTGKHVEPSKEVKPAAEAQATQPGATIANFTN,failed
6,MLSLAYGMVALIGYSVSFDKTTFRLLRGESNLFYTLAKWENNKLHVELPENIDKQSPTMTLIYDENGQLLWAQRDVPWLMKMIQPDWLKSNGFHEIEADVNDTSLLLSGDHSIQQQLQEVREDDDDAEMTHSVAVNVYPATSRMPKLTIVVVDTIPVELKSSYMVWSWFIYVLSANLLLVIPLLWVAAWWSLRPIEALAKEVRELEEHNRELLNPATTRELTSLVRNLNRLLKSERERYDKYRTTLTDLTHSLKTPLAVLQSTLRSLRSEKMSVSDAEPVMLEQISRISQQIGYYLHRASMHGGTLLSRELHPVAPLLDNLTSALNKVYQRKGVNISLDISPEISFVGEQNDFVEVMGNVLDNACKYCLEFVEISARQTDEHLYIVVEDDGPGIPLSKREVIFDRGQRVDTLRPGQGVGLAVAREITKQYEGKIVAGESMLGGARMEVIFGRQHSTPKDE,failed
7,MSLRVIDTHCDALYKLQAGKGKYTFQDAEELDVNFERLIEAKMLLQGFAIFLDEDIPVEHKWKKAVEQVNIFKQHVLHKGGIIHHVKKWCDLENLPEDKIGAMLTLEGIEPIGRDLDKLTQLLDGGVLSVGLTWNNANLAADGIMEERGAGLTRFGKDIIHLLNERKVFTDVSHLSVKAFWETLEQAEFVIASHSNAKAICSHPRNLDDEQIKAMIEHDAMIHVVFYPLFTTNNGVADTEDVIRHIDHICELGGLKNIGFGSDFDGIPDHVKGLEHVGKYQSFLETLEKHYTKEEIEGFASRNFLNHLPKEGHHHHHH,not failed
8,MAVYLDKEKPVSERVEDLLSKMTLAEKCGQLNQRMYGWEAFSRDGETFHITEKFKEEVTRFEGIGALYGLFRADPWSKMNKDTGVSRKNAGKVANKIQRYVIENTRLGIPVLLAEEVPHGHQALDSESYPVNLARAASFNPELQKQVASAITEEISEKGVHLALASALDILRDPRWGRAEECYGEDPYLAAELTAAITEGFQASGKIAVILKHFAAQGEPIGGHNSGPVSIGVRELREIFLEPMRAGIRSGALGVMAAYNEIDGVPCHANKELLTTILREEMGFSGIVMADGCALDRLLKLNPDPKKAAKMALEAGVDLSLWDEVFPFLEESVEKGILDEKVVDDAVRRVLQVKFQLGLFEQPFVEEEI,failed
9,MTQSPYWQRIAAKAQAAQRPFFSLAPMEAVTGSVFRRVVMRAAAPDVFYTEFTNALSITHPKAKFTTRGRLYVDEAESPRPIVQLWGNSGEDFTKAAHEVKNQGYQAIDLNMGCPDMAVIKNHSGSDLIRHFDRAKEVIEGARQAELPVSVKTRLGFDDVHEYETWIPFLLQQQVPVLTVHVRTKMEMSKVPAHYELIDNLVQMRDTLAPATLLQINGDILDYQAGLKLAKAHPGVDGIMIGRGIFQNPYAFEPIPQPHSTRDMLELLRYQVDLYDQFIGLGLQGHFAPLQRFFKIYVRGMRHAAELRNELMQTKTTDDVRAIIDRLEAKLPAD,failed
10,LKYMYKIDDDKKYILYCPTWRGNQRKEVTQINLKDLLKYLPENYEIIVKLHPNESHLRTRYNQIDNRIHCYFNELVDIQELYILSECMITDYSSTIFDYIHLNKPVFILQEDEQQYKQSVGFYFDLFEVGDFLKASLNERMLAKQICSTDYINYSKVVHRLMKQDSSKSSEKLMAEILG,failed
11,MNIEQMLAILDPDVVQRLKIAVEIGKWPNGVALTAEQRQICMQAVMIWEHKHLPEEERTGYIDRGTKEEGEECDSHEPEIKPIRFI,failed
12,MRISFVGSGKVATHLAKAFAQQHQIIQIMSRNLPHAEKLAHQVGACAIDNYSQIEQEIDLLVIAVSDQSISSVIQAVHVFVPEQLIVHTSGSTDVKILSDIHSNAGVFYPLQTFSFERDIHWSDTPLLIEAEQANSLSILNALANSLTKRVYHYSSTQRLSLHLAAVFACNFSNYCYDMAKQTVDQAQVDFSLLYPLILETAKKATQHDPVQVQTGPAVRHDHNIVELHQNLLLKANRPDLKDIYQRLSQAIIARHHTQP,failed
13,MSRPPTTPSAPQTADLVRPARRGDLDGLLALARAADAGMTNLPADRAALDDRLAASEQALIDPETRNAGAAVYLVLERQGRVIGAACVFARIGVAQPFYSYRVTRLTQLSPDLGKRVEMSVLTLVNDLTDQAEVGGLFVAPDAR,failed
14,MKSLATDMTEGNVSKHLIKFAIPLILGNLFQLTYNASDSIIVGRFVGKNALAAVGIANPIMNIVMFFIVGICLGASVLMSEYYGAGNVKKLRREISTTVIAGFIFTVLIIIICVIFTEPILGLVKTPKEIIPEAAIYLRIIFISLIFTFFYNIYAAALRSIGDSKNPLLFLMISAVLNVVMDIVFVVWLKMGVAGSAIATSVAEMMSCVFCIVYVHFKIPILKFSFKDMVIDKGLLRSTVNYSWATAMQQTCLYVGKFMVQGAVNPLGVNSIAAFNAVNRVDDFAFAPEQSISNAMTTFLAQNRGANKYKRIKKGFLTGMKLETLYWCILVGIVYLGSTAIMKLFVSGSEVKVISIGSYYLKLMAFFYLLPSWTNGVQGYFRGMGDMKITLRSTFSQIVGRVAFSYILAPRIGMVGIAFSCLGGWIVMLAYEVPCLIKYRRNFNNKLSESSI,failed
15,MSLPQSKVLTSFGTANRTPRAAETHPLTWRLRDDGQPVWLEEYQTKQGYDAVRKALGQMSPDEIVSTVKDAGLKGRGGAGFPTGVKWGLMPKDESMNIRYLLCNADEMEPNTWKDRLLMEQLPHLLIEGMIISAKALKAYRGYIFLRGEYVDAAINLRRAVEEAKAAGLLGKNILGSGFDFELFVHTGAGRYICGEETALINSLEGRRANPRAKPPFPAVSGVWGKPTCVNNVETLCNVPAIIGNGVAWYHTLALPGSEDHGTKLMGFSGKVNNPGVWELPFGITARELFEGYAGGMRSGYRLKAWQPGGAGTGFLLPEHLDAQMYTAGIGKVGTRMGTGLAMAVDDSISMVSLLRNMEEFFARESCGWCTPCRDGLPWSVKLLRSLERGEGQEGDLATLEQLCNFLGPGKTFCAHAPGAVEPLASAIKYFRSEFEAGIKGSGDNRKSIKGIQPNLLGERWLEHHHHHH,not failed
16,GHMYETIRYEVKGQVAWLTLNRPDQLNAFTEQMNAEVTKALKQAGADPNVRCVVITGAGRAFCAGEDLSGVTEEMDHGDVLRSRYAPMMKALHHLEKPVVAAVNGAAAGAGMSLALACDFRLLSEKASFAPAFIHVGLVPDAGHLYYLPRLVGRAKALELAVLGEKVTAEEAAALGLATKVIPLSDWEEEVKQFAERLSAMPTKAIGLIKRLLRESEETTFDRYLEREAECQRIAGLTSDHREGVKAFFEKRKPLFQGN,not failed
17,MGHHHHHHSHMDSHDLQRFLSDFRDLMSWINGIRGLVSSDELAKDVTGAEALLERHQEHRTEIDARAGTFQAFEQFGQQLLAHGHYASPEIKQKLDILDQERADLEKAWVQRRMMLDQCLELQLFHRDCEQAENWMAAREAFLNTEDKGDSLDSVEALIKKHEDFDKAINVQEEKIAALQAFADQLIAAGHYAKGDISSRRNEVLDRWRRLKAQMIEKR,not failed
18,MKRLMTSLAALSLTAGLAHAQAADVPDNLEKLSNFQSTGATDFTFVEQGGDFADGIKRNLERIKLPQGFRIGLYAVVPDARHMAVGPQGIVTFVGTRKDKVWAVTDRNKDRVADEVKDFAPSLRFTIPNGPCFSKDGFLYIAEQNRVLLFPAAEFFYESGDVAAFNLVKQGELIPVEEESFNHTARVCDIGPDGMIYITLGQPFNVPAPEKRELYDKWGIGGIVRMKTDGTGREVFARGIRNSVGMDIDPETGNVWFTDNQVDGMGDDIPPGEINRATEPGQNFGFPWYGGGSIRTNEYKDEEPPADAVMPVVEMDAHAADLGMMFYTGSMFPEEYRGAIFSAQHGSWNRTTPVGARVMVTTLAEDGTATTKPFAEGWIDENGEYLGRPVDVAQLRDGSILVSDDLVGAIYRIWYQPE,failed
19,MGNTIRALVAFIPADRCQNYVVRDLREMPLDKMVDLSGSQLRRFPLHVCSFRELVKLYLSDNHLNSLPPELGQLQNLQILALDFNNFKALPQVVCTLKQLCILYLGNNKLCDLPSELSLLQNLRTLWIEANCLTQLPDVVCELSLLKTLHAGSNALRLLPGQLRRLQELRTIWLSGNRLTDFPTVLLHMPFLEVIDVDWNSIRYFPSLAHLSSLKLVIYDHNPCRNAPKVAKGVRRVGRWAEETPEPDPRKARRYALVREESQELQAPVPLLPPTNS,failed
